Laboratory results: the supplement of paper PMC7877785
± gives the uncertainty stated by the source.

Assay: self-splicing fitness, log relative to wild type (ln ratio); higher = more splicing; Tetrahymena group I intron in knt gene, E. coli kanamycin selection, DiMSum; sequences stand for … in CUCUCU…GGAGGGAAAAGUUAUCAGGCAUGCACCUGGUAGCUAGUCUUUAAACCAAUAGAUUGCAUCGGUUUAAAAGGCAAGACCGUCAAAUUGCGGGAAAGGGGUCAACAGCCGUUCAGUACCAAGUCUCAGGGGAAACUUUGAGAUGGCCUUGCAAAGGGUAUGGUAAUAAGCUGACGGACAUGGUCCUAACCACGCAGCCAAGUCCUAAGUCAACAGAUCUUCUGUUGAUAUGGAUGCAGUUCACAGACUAAAUGUCGGUCGGGGAAGAUGUAUUCUUCUCAUAAGAUAUAGUCGGACCUCUCCUUAAUGGGAGCUAGCGGAUGAAGUGAUGCAACACUGGAGCCGCUGGGAACUAAUUUGUAUGCGAAAGUAUAUUGAUUAGUUUUGGAGUACUCGUGGUCG
How it was run: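 Pooled colonies went to amplicon sequencing on an Illumina HiSeq 2500 after six replicate transformations. The plates were LB agar with 100 μg/mL carbenicillin, 50 μM IPTG and 0.2% rhamnose, with or without 25 μg/mL kanamycin, incubated overnight at 37°C or 30°C. The E. coli BL21(DE3) library had all eight P1ex-region intron nucleotides randomised, the intron placed in the knt kanamycin-resistance gene on pET-22b(+). DiMSum fitness is the error-weighted combination of replicate fold changes, kanamycin against none, normalised to wild type.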

Row | Sequence | self-splicing fitness (ln) (30 °C) | self-splicing fitness (ln) (37 °C)
1 | UGAUAGCAAUAUUACGAGAG | -3.29 ± 0.43 | -1.65 ± 0.18
2 | UAAUAGCAAUAUUACGAGAG |  | -2.68 ± 0.3
3 | UAUGAGCAAUAUUACGGAAU | -3.65 ± 0.47 | -2.44 ± 0.38
4 | CUUCAGCAAUAUUACGUCAA | -1.25 ± 0.34 | 
5 | UUACAGCAAUAUUACGUCAG | -0.769 ± 0.067 | -0.337 ± 0.09
6 | CCUGAGCAAUAUUACGCAUG | -4.37 ± 0.34 | -2.27 ± 0.28
7 | AUGCAGCAAUAUUACGUUAU | -2.45 ± 0.079 | -1.24 ± 0.078
8 | GACCAGCAAUAUUACGUAGA | 0.284 ± 0.056 | 0.219 ± 0.074
9 | CCCGAGCAAUAUUACGCAUA | -3.7 ± 0.43 | -2.06 ± 0.21
10 | UGCUAGCAAUAUUACGCAUA | -2.58 ± 0.18 | -1.37 ± 0.14
11 | AAGCAGCAAUAUUACGACGG | -2.19 ± 0.088 | -1.17 ± 0.09
12 | UCCUAGCAAUAUUACGUUUU | -3.41 ± 0.21 | -2.69 ± 0.2
13 | AUGUAGCAAUAUUACGUUGC | -3.43 ± 0.27 | -3.08 ± 0.32
14 | AUCCAGCAAUAUUACGAUGA | -0.862 ± 0.086 | -0.285 ± 0.094
15 | UUGCAGCAAUAUUACGAGGG | -2.78 ± 0.15 | -0.707 ± 0.15
16 | GGCAAGCAAUAUUACGAAGC | -1.69 ± 0.27 | -0.628 ± 0.47
17 | CACAAGCAAUAUUACGUUGA | -3.84 ± 0.2 | -1.64 ± 0.1
18 | CCACAGCAAUAUUACGAUCG | -0.326 ± 0.06 | 0.703 ± 0.077
19 | CCAGAGCAAUAUUACGAGGA | -2.96 ± 0.23 | -2.46 ± 0.27
20 | AUAUAGCAAUAUUACGGGCA | -1.67 ± 0.17 | -1.29 ± 0.19
21 | CGAUAGCAAUAUUACGGCAA | -2.65 ± 0.27 | -1.79 ± 0.22
22 | UCCGAGCAAUAUUACGACGG | -1.46 ± 0.11 | -0.111 ± 0.17
23 | CAGCAGCAAUAUUACGGUGC | -2.99 ± 0.17 | -2.1 ± 0.28
24 | GCCAAGCAAUAUUACGUCCA | -2.32 ± 0.18 | 0.44 ± 0.2

Row | Sequence | self-splicing fitness (ln) (30 °C) | self-splicing fitness (ln) (37 °C)
25 | GGGCAGCAAUAUUACGUACU | -0.53 ± 0.098 | -0.834 ± 0.11
26 | UACGAGCAAUAUUACGGUCA | -1.39 ± 0.11 | -0.173 ± 0.11
27 | ACGUAGCAAUAUUACGGGCC | -2.66 ± 0.14 | -0.629 ± 0.12
28 | AGCGAGCAAUAUUACGAUAU | -4.12 ± 0.29 | -1.99 ± 0.19
29 | CUUUAGCAAUAUUACGAGGU | -3.4 ± 0.23 | -2.3 ± 0.27
30 | GAAAAGCAAUAUUACGACUG | -0.58 ± 0.094 | -0.857 ± 0.1
31 | UUACAGCAAUAUUACGAGGU | -3.08 ± 0.22 | -2.72 ± 0.23
32 | UCUAAGCAAUAUUACGGGGC |  | -2.21 ± 0.32
33 | AGACAGCAAUAUUACGUGGA | -3.96 ± 0.24 | -2.37 ± 0.2
34 | ACCGAGCAAUAUUACGGGUG | -1.43 ± 0.061 | -1.08 ± 0.068
35 | CUUAAGCAAUAUUACGGUCA | -3.8 ± 0.46 | -3.15 ± 0.32
36 | ACAAAGCAAUAUUACGAACU | -0.4 ± 0.055 | 0.248 ± 0.075
37 | CUGGAGCAAUAUUACGUUUC | -3.92 ± 0.31 | -2.38 ± 0.31
38 | UUACAGCAAUAUUACGCGCG | -0.121 ± 0.099 | 0.0717 ± 0.1
39 | GGAUAGCAAUAUUACGACUU | 0.215 ± 0.18 | 0.847 ± 0.17
40 | AUCUAGCAAUAUUACGUGAG | -0.412 ± 0.095 | -0.00344 ± 0.17
41 | CGGGAGCAAUAUUACGAAUU | -3.16 ± 0.34 | 
42 | ACCAAGCAAUAUUACGAACU | -0.54 ± 0.061 | -0.819 ± 0.08
43 | CGUCAGCAAUAUUACGUGCA | -0.497 ± 0.057 | -0.0444 ± 0.072
44 | GAGCAGCAAUAUUACGGCAG | -2.34 ± 0.16 | -1.69 ± 0.19
45 | CGGGAGCAAUAUUACGCUAU | -3.6 ± 0.31 | -2.64 ± 0.48
46 | GAACAGCAAUAUUACGUAGU | -1.55 ± 0.06 | -0.106 ± 0.075
47 | UUCUAGCAAUAUUACGGGGU | -3.67 ± 0.33 | -1.92 ± 0.24
48 | CGAGAGCAAUAUUACGCAGU | -1.96 ± 0.41 | -2.21 ± 0.47
